The values that follow come from article PMC2666446 (Journal of molecular biology, 2008).

For data set [1], the target named is T1, MutS (Escherichia coli, UniProt P23909 1-853).
T1 sequence: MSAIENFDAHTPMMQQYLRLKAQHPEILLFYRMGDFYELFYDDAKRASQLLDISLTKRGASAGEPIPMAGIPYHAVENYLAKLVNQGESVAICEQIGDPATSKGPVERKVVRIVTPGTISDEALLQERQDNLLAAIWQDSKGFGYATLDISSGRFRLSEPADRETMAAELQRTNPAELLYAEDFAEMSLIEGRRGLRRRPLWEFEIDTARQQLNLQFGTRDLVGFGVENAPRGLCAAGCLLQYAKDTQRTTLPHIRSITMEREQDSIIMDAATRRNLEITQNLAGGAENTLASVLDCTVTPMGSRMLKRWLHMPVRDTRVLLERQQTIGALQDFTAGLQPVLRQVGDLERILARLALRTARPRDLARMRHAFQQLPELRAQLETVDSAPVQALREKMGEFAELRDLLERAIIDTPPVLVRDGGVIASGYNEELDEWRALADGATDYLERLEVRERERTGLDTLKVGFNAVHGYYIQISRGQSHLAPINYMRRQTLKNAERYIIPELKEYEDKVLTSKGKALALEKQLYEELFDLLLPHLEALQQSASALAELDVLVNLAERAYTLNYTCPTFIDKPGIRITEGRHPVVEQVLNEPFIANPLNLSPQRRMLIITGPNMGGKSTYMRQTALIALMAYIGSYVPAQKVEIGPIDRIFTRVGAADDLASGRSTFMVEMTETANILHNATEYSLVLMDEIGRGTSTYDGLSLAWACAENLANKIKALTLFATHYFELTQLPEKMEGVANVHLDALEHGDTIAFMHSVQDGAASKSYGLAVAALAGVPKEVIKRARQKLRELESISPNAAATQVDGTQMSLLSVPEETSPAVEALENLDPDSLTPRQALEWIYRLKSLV
Kind of data set: FRET equilibrium titration.

In data set [2] the target is T1, MutS. Nature of the data set: FRET equilibrium titration. This is another data set of the same source.
A further data set deals with T2, mutS-A842E (Escherichia coli, UniProt P23909 1-853, A842E).
T2 sequence: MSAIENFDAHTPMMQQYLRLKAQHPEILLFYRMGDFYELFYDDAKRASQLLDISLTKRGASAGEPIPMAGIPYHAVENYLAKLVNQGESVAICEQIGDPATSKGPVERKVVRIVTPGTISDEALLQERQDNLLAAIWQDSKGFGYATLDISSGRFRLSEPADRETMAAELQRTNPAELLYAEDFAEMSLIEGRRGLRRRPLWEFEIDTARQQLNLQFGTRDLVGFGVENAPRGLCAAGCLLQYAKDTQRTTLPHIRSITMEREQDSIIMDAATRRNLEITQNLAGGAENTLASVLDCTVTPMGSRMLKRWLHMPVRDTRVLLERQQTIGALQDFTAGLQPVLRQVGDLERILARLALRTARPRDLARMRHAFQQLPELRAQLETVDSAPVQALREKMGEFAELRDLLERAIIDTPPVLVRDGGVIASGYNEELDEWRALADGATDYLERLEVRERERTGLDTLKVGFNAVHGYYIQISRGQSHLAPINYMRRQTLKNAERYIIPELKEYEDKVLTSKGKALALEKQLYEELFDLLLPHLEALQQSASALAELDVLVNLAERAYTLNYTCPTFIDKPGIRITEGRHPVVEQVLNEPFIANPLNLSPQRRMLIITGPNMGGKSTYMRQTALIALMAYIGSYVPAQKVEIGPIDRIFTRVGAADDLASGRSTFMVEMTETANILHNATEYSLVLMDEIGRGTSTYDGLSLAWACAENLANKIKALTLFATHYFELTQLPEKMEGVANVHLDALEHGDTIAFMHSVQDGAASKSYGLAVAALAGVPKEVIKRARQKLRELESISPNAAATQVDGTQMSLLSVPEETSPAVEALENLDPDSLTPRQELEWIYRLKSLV
Nature of the data set: EMSA.

The target of data set [3] is T1, MutS. Kind of data set: FRET equilibrium titration. The source holds these as a separate data set.
In data set [4] the target is T1, MutS. Kind of data set: stopped-flow FRET kinetics.
In data set [5] the target is T1, MutS. Nature of the data set: stopped-flow FRET kinetics. This is another data set of the same source.
Data set [6] addresses T1, MutS. Nature of the data set: stopped-flow FRET kinetics. The source holds these as a separate data set.
Data set [7] concerns the target T1, MutS. Kind of data set: stopped-flow FRET kinetics. This is another data set of the same source.
Data set [8] concerns the target T1, MutS. Nature of the data set: stopped-flow FRET kinetics. The source holds these as a separate data set.
In data set [9] the target is T1, MutS. Kind of data set: stopped-flow FRET kinetics. The source holds these as a separate data set.
Data set [10] concerns the target T1, MutS. Nature of the data set: stopped-flow FRET kinetics. The source holds these as a separate data set.
Data set [11] addresses T1, MutS. Nature of the data set: FRET equilibrium titration. The source holds these as a separate data set.
The target in data set [12] is T1, MutS. Nature of the data set: FRET equilibrium titration. The source holds these as a separate data set.

B1: 30-1ΔT (dsDNA)
DNA 1: AACTGCCAGGCACCAGTGTCAGCGTCGTAT
DNA 2: ATACGACGCTGACACTGGTGCCTTGGCAGTT
Turning to B1, the Kd with MutS [1] amounted to 0.062 µM; with MutS [2] it was 0.056 µM; with MutS [3], 0.123 µM; with MutS [4], 0.137 µM; in the data set with MutS [5] it was 0.091 µM; with MutS [6], 0.05 µM. For the same molecule, the values for the Kd with MutS [7], with MutS [8] and with MutS [9] were 0.027 µM, 0.321 µM and 0.039 µM, respectively. In addition, the binding result with mutS-A842E was “binds”.

B2: 30-GT (dsDNA)
DNA 1: AACTGCCAGGCACCAGTGTCAGCGTCGTAT
DNA 2: ATACGACGCTGACACTGGTGCTTGGCAGTT
In the case of B2, the Kd is 0.074 µM with MutS [1]; 0.091 µM with MutS [5]; 0.026 µM in the data set with MutS [10]; around 0.176 µM in the data set with MutS [11]; 0.069 µM in the data set with MutS [12].
